Results: publication PMC4765800, “Transcription factor StWRKY1 regulates phenylpropanoid metabolites conferring late blight resistance in potato”

Biological target: StWRKY1 (Solanum tuberosum, UniProt Q9LEC7 1-172)
Test: EMSA; shift inhibited by excess unlabelled competitor; poly(dI-dC); EMSA: 20 ul with kit binding buffer (LightShift), 1 ul each of 1 ug/ul poly(dI-dC), 50% glycerol, 1% NP-40, 1 M KCl, 100 mM MgCl2, 200 mM EDTA; 3 ug protein, 20 fmol probe; 25 C, 20 min; pH not stated
Conditions: protein: recombinant; label: 3' biotin; blunt

StWRKY1, sequence (Q9LEC7 entry or part of it): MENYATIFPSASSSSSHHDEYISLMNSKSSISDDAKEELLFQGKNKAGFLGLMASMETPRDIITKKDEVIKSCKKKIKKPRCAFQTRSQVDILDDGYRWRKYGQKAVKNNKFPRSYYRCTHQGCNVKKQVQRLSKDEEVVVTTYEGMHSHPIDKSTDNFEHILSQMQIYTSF

B1: THT promoter W1-box probe (dsDNA)
DNA 1: TCGTCAGAGTTGACCTCCACCAACCA
DNA 2: TGGTTGGTGGAGGTCAACTCTGACGA
- binding result: binds
